The text below walks through data of patent US20240034792A1 (HARBOUR BIOMED SHANGHAI, published 2024).

Where a chain is given by its changes, count along the chain named.

For assay [1], the target named is T1, Human PD-1-His protein (ACROBiosystems, # PD1-H5221) (human, UniProt Q15116 25-167).
T1 construct: Bought reagent, coated on the ELISA plate; also called human PD-1 protein; human PD-1 antigen; not shown: His tag
The assay can be described thus: ELISA, plate-coated human PD-1-His. Here is the method:
Human PD-1-His protein (ACROBiosystems, # PD1-H5221) was diluted to 2 μg/mL with PBS, added to a 96-well plate (Corning, cat#9018) at 100 μL/well, and incubated at 4° C. overnight. After the liquid was discarded, the plate was washed 3 times with PBST buffer (pH 7.4, containing 0.05% Tween-20), and 250 μL of 2% BSA blocking buffer was added. The plate was incubated at 37° C. for 1 h. The blocking buffer was discarded, and the plate was washed 3 times with PBST buffer (pH 7.4, containing 0.05% Tween-20). The test antigen-binding protein was 5-fold diluted in sequence at an initial concentration of 100 nM for a total of 8-10 concentration gradients, and added at 100 μL/well. The plate was incubated at 37° C. for 1 h. An isotype antibody was taken as a control. After the plate was washed 3 times with PBST buffer (pH 7.4, containing 0.05% Tween-20), a 4000-fold diluted goat anti-human HRP secondary antibody (Invitrogen, #A18805) was added. The plate was incubated away from light at 37° C. for 1 h. After the plate was washed 3 times with PBST buffer (pH 7.4, containing 0.05% Tween-20), TMB (Biopanda, # TMB-S-003) was added at 100 μL/well. The plate was left away from light at room temperature for about 5 min. The reactions were terminated by adding 50 μL of stop buffer (BBI life sciences, #E661006-0200) to each well, and the absorbance values at 450 nm (OD450) were measured using a microplate reader (PerkinElemer, #Enspire). The half maximal effective concentration (EC₅₀) was calculated from the measurement results.

The target in assay [2] is T2, Cynomolgus monkey PD-1-His protein (AcroBiosystems, # PD1-05223) (cynomolgus monkey, UniProt B0LAJ3 25-170).
T2 construct: Bought reagent, coated on the ELISA plate; also called cynomolgus monkey PD-1 protein
The assay can be described thus: ELISA, plate-coated cynomolgus monkey PD-1-His. Here is the method: Cynomolgus monkey PD-1-His protein (AcroBiosystems, # PD1-05223) was diluted to 2 μg/mL with PBS, added to a 96-well plate (Corning, #9018) at 100 μL/well, and incubated at 4° C. overnight. After the liquid was discarded, the plate was washed 3 times with PBST, blocked by adding 250 μL of 2% BSA, and incubated at room temperature for 1 h. The blocking buffer was discarded, and the plate was washed 3 times with PBST buffer (pH 7.4, containing 0.05% Tween-20). The test antigen-binding protein was diluted to 5 μg/mL, and added at 100 μL/well. The plate was incubated at 37° C. for 1 h. After the plate was washed 3 times with PBST buffer (pH 7.4, containing 0.05% Tween-20), a 4000-fold diluted goat anti-human HRP secondary antibody (Invitrogen, #A18805) was added. The plate was incubated at 37° C. for 1 h. After the plate was washed, TMB (Biopanda, # TMB-S-003) was added at 100 μL/well. The plate was left away from light at room temperature for 5 min. The reactions were terminated by adding 50 μL of stop buffer (BBI life sciences, #E661006-0200) to each well, and the absorbance values at 450 nm (OD450) were measured using a microplate reader (PerkinElemer, #Enspire).
Background: ELISA stands for enzyme-linked immunosorbent assay.

Assay [3] has as its target T3, Human PD-1 expressed on CHO-K1 cells (CHO-K1/hPD-1) (human, UniProt Q15116 25-288).
T3 construct: whole, on cells; also called CHO-K1 cells overexpressing human PD-1
As to the kind of experiment: FACS, CHO-K1/hPD-1 cells. Here is the method: (§1) In order to investigate the in vitro binding activity of the PD-1 antigen-binding proteins to human/cynomolgus monkey PD-1, the binding assay at the cellular level was performed using a CHO-K1 cell strain overexpressing human or cynomolgus monkey PD-1 (CHO-K1/hPD-1 or CHO-K1/cyno PD-1, from GenScript). Briefly, the CHO-K1-hPD-1 cells were digested and resuspended in an F-12K complete medium, and the cell density was adjusted to 1×10⁶ cells/mL. The cells were seeded in a 96-well V-bottom plate (Corning, Cat#3894) at 100 μL/well, followed by the addition of the test antigen-binding proteins with concentrations 2-fold of final concentrations obtained by 5-fold gradient dilution were each added at 100 μL/well. The mixtures were well mixed. The maximum final concentration of the antigen-binding proteins was 100 nM or 300 nM. A total of 8-11 concentrations were set. hIgG was used as a control. The cells were incubated at 4° C. for 1 h away from light. Thereafter, the cells in each well were rinsed twice with 100 μL of pre-cooled PBS, and centrifuged at 500 g at 4° C. for 5 min, and then the supernatant was discarded. Then 100 μL of a fluorescent secondary antibody (goat anti-human IgG (H+L) secondary antibody, Alexa Fluor® 488 conjugate, Invitrogen, Cat #A11013, 1:1000) was added to each well. The plate was incubated away from light at 4° C. for 30 min. The cells in each well were rinsed twice with 200 μL of pre-cooled PBS, and centrifuged at 500 g at 4° C. for 5 min, and then the supernatant was discarded. Finally, the cells in each well were resuspended in 200 μL of pre-cooled PBS, and the fluorescence signal values were read using a BD FACS CANTOII.
For orientation: A flow cytometer gives signals particle by particle.

Assay [4] concerns the target T3, Human PD-1 expressed on CHO-K1 cells …. The assay can be described thus: FACS blocking of biotin-labeled human PD-L1 binding to CHO-K1-hPD-1 cells. Here is the method: Briefly, the CHO-K1-hPD-1 cells were digested and resuspended in an F-12K complete medium, and the cell density was adjusted to 1×10⁶ cells/mL. The cells were seeded in a 96-well V-bottom plate (Corning, Cat#3894) at 100 μL/well, followed by the addition of the test antigen-binding proteins with concentrations 2-fold of final concentrations obtained by 3-fold or 5-fold gradient dilution were each added at 100 μL/well. The mixtures were well mixed. The maximum final concentration of the antigen-binding proteins was 100 nM or 300 nM. A total of 8 concentrations were set. hIgG was used as a control. The cells were incubated at 4° C. for 1 h away from light. […] The cells were incubated at 4° C. away from light for 30 min. The cells in each well were rinsed twice with 100 μL of pre-cooled PBS, and centrifuged at 500 g at 4° C. for 5 min, and then the supernatant was discarded. A fluorescent secondary antibody (PE Streptavidin, BD, Cat# 554061, 1:200) was added at 100 μL/well, and the cells were incubated at 4° C. away from light for 30 min. The cells in each well were rinsed twice with 200 μL of pre-cooled PBS, and centrifuged at 500 g at 4° C. for 5 min, and then the supernatant was discarded. Finally, the cells in each well were resuspended in 200 μL of pre-cooled PBS, the fluorescence signal values were read using a BD FACS CANTOII, and the IC₅₀ values were calculated.

Assay [5] concerns the target T4, Cynomolgus monkey PD-1 expressed on CHO-K1 cells (CHO-K1/cyno PD-1) (cynomolgus monkey, UniProt B0LAJ3 25-288).
T4 construct: also called CHO-K1 cells overexpressing cynomolgus monkey PD-1
The assay can be described thus: FACS, CHO-K1/cyno PD-1 cells. Here is the method: as §1

Assay [6] deals with T5, Human CD73 expressed on CHO-K1 cells (CHO-K1-hCD73) (human, UniProt P21589 27-549).
T5 construct: whole, on cells
T5 sequence (looked up): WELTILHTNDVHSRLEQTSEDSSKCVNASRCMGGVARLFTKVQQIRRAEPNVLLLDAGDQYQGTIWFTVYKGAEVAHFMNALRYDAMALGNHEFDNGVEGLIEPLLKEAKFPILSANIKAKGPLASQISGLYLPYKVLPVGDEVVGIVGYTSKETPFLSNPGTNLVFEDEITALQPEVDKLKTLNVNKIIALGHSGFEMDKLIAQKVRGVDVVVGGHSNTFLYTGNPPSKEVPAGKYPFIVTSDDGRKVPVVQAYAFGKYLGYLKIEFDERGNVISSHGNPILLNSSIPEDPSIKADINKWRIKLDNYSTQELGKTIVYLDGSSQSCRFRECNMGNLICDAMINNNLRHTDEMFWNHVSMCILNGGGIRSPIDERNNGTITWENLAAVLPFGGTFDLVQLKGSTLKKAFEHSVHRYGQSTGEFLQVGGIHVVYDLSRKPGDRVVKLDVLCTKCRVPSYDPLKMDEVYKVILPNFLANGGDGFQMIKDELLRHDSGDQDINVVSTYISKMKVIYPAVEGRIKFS
As to the kind of experiment: FACS, CHO-K1-hCD73 cells. Here is the method:
In order to investigate the binding activity of the CD73×PD-1 bispecific antibody to human CD73 and PD-1, the binding assay at the cellular level was performed using a CHO-K1 cell strain overexpressing human CD73 or PD-1 (CHO-K1-hCD73 or CHO-K1-hPD-1). Briefly, the CHO-K1-hCD73 and CHO-K1-hPD-1 cells were digested and resuspended in an F-12K complete medium, and the cell density was adjusted to 1×10⁶ cells/mL. The cells were seeded in a 96-well V-bottom plate (Corning, #3894) at 100 μL/well, followed by the addition at 100 μL/well and centrifugation at 500 g at 4° C. for 5 min, and then the supernatant was discarded. Antibodies were 3-fold diluted to a maximum final concentration of 50 nM, and a total of 8 concentrations were set. 100 μL of the diluted antibodies was added to each well, and the cells were incubated at 4° C. for 1 h away from light. Thereafter, the cells in each well were rinsed twice with 100 μL of pre-cooled PBS, and centrifuged at 500 g at 4° C. for 5 min, and then the supernatant was discarded. Then 100 μL of a fluorescent secondary antibody (goat anti-human IgG (H+L) secondary antibody, Alexa Fluor® 488 conjugate, Invitrogen, Cat #A11013, 1:1000) was added to each well. […] Finally, the cells in each well were resuspended in 200 μL of pre-cooled PBS, and the fluorescence signal values were read using a BD FACS CANTOII.

T2 sequence (B0LAJ3 entry or part of it limits assumed): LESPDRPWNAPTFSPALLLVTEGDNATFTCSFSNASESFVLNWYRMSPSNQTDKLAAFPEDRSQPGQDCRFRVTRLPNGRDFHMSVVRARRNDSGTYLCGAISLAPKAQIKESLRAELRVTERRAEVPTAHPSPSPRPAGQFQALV
T3 sequence (Q15116 25-288): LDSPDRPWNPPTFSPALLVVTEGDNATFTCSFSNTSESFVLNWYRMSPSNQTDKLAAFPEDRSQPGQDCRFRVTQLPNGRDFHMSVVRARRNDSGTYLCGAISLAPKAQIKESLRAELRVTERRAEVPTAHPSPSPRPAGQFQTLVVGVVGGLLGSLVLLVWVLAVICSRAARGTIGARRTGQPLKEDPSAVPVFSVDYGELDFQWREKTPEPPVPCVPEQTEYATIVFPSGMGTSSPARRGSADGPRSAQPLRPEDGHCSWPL
T1 sequence (Q15116 25-167 limits assumed): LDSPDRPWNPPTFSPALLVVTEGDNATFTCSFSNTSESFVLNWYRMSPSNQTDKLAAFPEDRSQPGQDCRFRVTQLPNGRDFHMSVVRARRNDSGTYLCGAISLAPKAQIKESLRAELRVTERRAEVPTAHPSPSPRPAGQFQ
T4 sequence (B0LAJ3 entry or part of it limits assumed): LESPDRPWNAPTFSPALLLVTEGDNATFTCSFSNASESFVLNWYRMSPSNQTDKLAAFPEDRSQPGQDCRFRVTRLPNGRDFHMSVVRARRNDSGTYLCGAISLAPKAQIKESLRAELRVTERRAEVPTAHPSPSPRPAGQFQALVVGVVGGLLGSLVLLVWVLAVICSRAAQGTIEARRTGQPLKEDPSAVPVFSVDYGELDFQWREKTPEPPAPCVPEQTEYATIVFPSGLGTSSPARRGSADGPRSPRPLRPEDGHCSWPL

B1: PR002474 (antibody, human IgG1, V domains shown)
VH: EVQLVETGGGLIQPGGSLRLSCAASGFNVSSHYMSWVRQAPGKGLEWVSIIHSGGSTYYADSVKGRFTISRDNSKNRLYLQMNSLRADDTAVYYCARATAVAEKNGYNYPFNYWGQGTLVTVSS
notes: Heavy-chain-only antibody (HCAb), human IgG1 Fc; two heavy chains, no light chain; also called R4004P547D3
For B1, in assay [1], the EC50 (as a rule, the concentration needed to bring the measured effect to its halfway point) is 0.189 nM and the “OD Maximum” value is 2.97. Besides, in assay [2], the EC50 was determined as 0.345 nM and the “OD Maximum” value was determined as 2.89. In assay [3], the midpoint of the response, the EC50, lay at 13.9 nM and the “MFI Maximum” value was found to be 1.08e+06. For the same molecule, in assay [4], the IC50 (in general, the point on the concentration scale where inhibition reaches its midpoint) was found to be 8.91 nM and the “Maximum inhibition rate (%)” value came out at 92.2%.

B2: PR002476 (antibody, human IgG1, V domains shown)
VH: B1 VH with D88E
notes: Heavy-chain-only antibody (HCAb), human IgG1 Fc; two heavy chains, no light chain; also called R4004P547H11
On to B2, for which, in assay [1], the EC50 is 0.171 nM and the “OD Maximum” value is 2.92. In assay [2], the EC50 turned out to be 0.366 nM and the “OD Maximum” value stood at 2.7. Further, in assay [3], it took 12.7 nM to reach a half-maximal effect (EC50) and the “MFI Maximum” value turned out to be 1.02e+06. Moreover, in assay [4], the IC50 came to 10.3 nM and the “Maximum inhibition rate (%)” value came out at 91.3%.

B3: PR002479 (antibody, human IgG1, V domains shown)
VH: B1 VH with D88E, K104E
notes: Heavy-chain-only antibody (HCAb), human IgG1 Fc; two heavy chains, no light chain; also called R4004P551D6
For B3, in assay [1], the midpoint of the response, the EC50, lay at 0.152 nM and the “OD Maximum” value turned out to be 2.85. In assay [2], the EC50 turned out to be 0.252 nM and the “OD Maximum” value was determined as 2.88. Also, in assay [3], the response was half-maximal at 17 nM (EC50) and the “MFI Maximum” value is 1.05e+06. Also, in assay [4], the IC50 turned out to be 16.2 nM and the “Maximum inhibition rate (%)” value is 96.2%.

B4: PR000150 (pembrolizumab analog) (antibody, human IgG4 S228P, kappa, V domains shown)
VH: QVQLVQSGVEVKKPGASVKVSCKASGYTFTNYYMYWVRQAPGQGLEWMGGINPSNGGTNFNEKFKNRVTLTTDSSTTTAYMELKSLQFDDTAVYYCARRDYRFDMGFDYWGQGTTVTVSS
VL: EIVLTQSPATLSLSPGERATLSCRASKGVSTSGYSYLHWYQQKPGQAPRLLIYLASYLESGVPARFSGSGSGTDFTLTISSLEPEDFAVYYCQHSRDLPLTFGGGTKVEIKR
notes: Anti-PD-1 positive control; also called positive control antibody pembrolizumab
On to B4, for which, in assay [2], the EC50 is 0.039 nM and the “OD Maximum” value amounted to 2.86. In assay [5], the EC50 came to 0.998 nM and the “MFI Maximum” value was determined as 19100.

B5: PR000846 (antibody, human IgG1, kappa, L234A L235A, V domains shown)
VH: QVQLVESGGGVAQPGRSLSLSCAASGFTFSDYGMHWVRQAPGKGLEWVALIWYDASFEYYADSVKGRFSISRDNSKNTLYLQMNSLRAEDTAVYYCVRDAQWGSRLDYWGQGTLVTVSS
VL: KIVMTQSPATLSLSPGERATLSCRASQSVSRYLAWYQQKPGQAPRLLIYDASNRATGIPARFSGSGSGTDFTLTISSLEPEDFAVYYCQQRSNWIFTFGPGTKVDIKR
notes: Parent monoclonal antibody of the CD73 end of PR003568; also called anti-CD73 IgG monoclonal antibody PR000846; anti-CD73 H2L2 antibody PR000846
B5 registered an EC50 in assay [6] of 1.45 nM.
